This series is described as follows: yeast display, Sf9 membrane polyspecificity reagent, FACS + sequencing; frameworks hold sequencing errors. The gist of the method: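 Galactose-induced (36–48 hours) yeast carrying a synthetic nanobody display library were exposed to 10% biotinylated, detergent-solubilized Sf9 membrane reagent at 4 °C for 1 hour. FACS followed streptavidin microbead enrichment, using low and high (top ~1%) gates for expression (anti-HA) and reagent binding (streptavidin). Colony PCR, MiSeq 2 × 250 sequencing and CDR-length filtering followed. Labels for polyreactivity reflect the gate of origin.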
As to “QVQLVESGGGLVQAGGSLRLSCAASGFTFSSNVMGWYRQAPGKERELVAAISTSGDGSTYYADSVKGRFTISRDNAKNTVYLQMNSLIPEDTAVYYCAAEYPDEDGVYEYDSWGQGTQVTVSS”, the “polyreactivity (PSR sort gate)” value was “low polyreactivity”.
Regarding “QVQLVESGGGLVQAGGSLRLSCAASGFTFSSYAMGWYRQAPGKERELVAAISRSGGSTYYADSVKGRFTISRDNAKNTVYVQMNSLKPEDTAVYYCAARFFARHYYWGQGTQVTVSS”, the “polyreactivity (PSR sort gate)” value is “high polyreactivity”.
As for “QVQLVESGGGLVQAGGSLRLSCAASGFTFSSYAMGWYRQAPGKERELVAAITRSGGNTYYADSVKGRFTISRDYAKNTVYLQMNSLKPEDTAVYDCAAPGKGISPSHYYWGQGTQVTVSS”, the “polyreactivity (PSR sort gate)” value was “high polyreactivity”.
“QVQLVESGGGLVQAGGSLRLSCAASGFTFSSYAMGWYRQAPGKERELVAAITTRGGTFYADSVKGRFTISRDNAKNTVYLQMNSLKPEDTAVYYCAARRVSGRGYWGQGTQVTVSS”: the “polyreactivity (PSR sort gate)” value is listed as “high polyreactivity”.
The value for “QVQLVESGGGLVQAGGSLRLSCAASGFTFSTNAMGWYRQAPGKERELVAAISWSGSSTYYADSVKGRFTISRDNAKNTVYLQMNSLKPEDTAVYYCAKSRGQADPTYDYWGQGTQVTVSS” was “low polyreactivity”; that for “QVQLVESGGGLVQAGGSLRLSCAASGFTFSTYAMGWYRQAPGKERELVAAISFSGGSTYYADSVKGRFTISRDNAKNTVYLQMNSLKPEDTAVYYCNAVFGYRLPGNYWGQGTQVTVSS” was “low polyreactivity”.
In the case of “QVQLVESGGGLVQAGGSLRLSCAASGFTFSTYAMGWYRQAPGKERELVAAITRSGGSTYYADSVKGRFTISRDNAKNTVYLQMNSLKPEDTAVYYCATDASFYDPDLYPYGYDYWGQGTQVTVSS”, the “polyreactivity (PSR sort gate)” value was “high polyreactivity”.
In the case of “QVQLVESGGGLVQAGGSLRLSCAASGFTFSVNAMVWYRQAPGKERELVAAISSRGSITYYADSVKGRFTISRDNAKNTVYLQMNSLKPEDTAVYYCAAKPLTGSSWEDYYWGQGTQVTVSS”, the “polyreactivity (PSR sort gate)” value is reported as “high polyreactivity”.
For “QVQLVESGGGLVQAGGSLRLSCAASGFTFSVYAMGWYRQAPGKERELVATITDSGSTNYADSVKGRFTISRDNAKNTVYLQMNSLKPEDTAVYYCNADFRRYVTYHYYRAVIHHDYWGQGTQVTVSS”, the “polyreactivity (PSR sort gate)” value was “high polyreactivity”.
As for “QVQLVESGGGLVQAGGSLRLSCAASGFTFSWYAMGCYRQAPGKVRELVAAITSRGGITYYADSVKGRFTISRDNAKNTVYLQMNSLKPEDTAVYYCNAYSQRYGYYYWGQGTQVTVSS”, the “polyreactivity (PSR sort gate)” value is “high polyreactivity”.
Under “QVQLVESGGGLVQAGGSLRLSCAASGFTFSWYPMGWYRQAPGKERELVAAITSGGGTNYADSVKGRFTISRDNAKNTVYLQMNSLIPEDTAVYYCAARGRWFYYLDDYWGQGTQVTVSS” stands “low polyreactivity”.
Turning to “QVQLVESGGGLVQAGGSLRLSCAASGFTFSWYTMGWYRQAPGKERELVAAITSGGSTNYADSVKGRFTISRDNAKNTVYLQMNSLKPEDTAVYYCNAYWSYSISGYDYWGQGTQVTVSS”, the “polyreactivity (PSR sort gate)” value is “low polyreactivity”.
For “QVQLVESGGGLVQAGGSLRLSCAASGFTFSYNSMGRYRQATGKERELVARISRTGGSTNYADSVKGRFTISRDNAKNTVYLQMNSLKPEDTAVYYCGTGYRYTYGSWGQGTQVTVSS”, the “polyreactivity (PSR sort gate)” value is on record as “high polyreactivity”.
Under “QVQLVESGGGLVQAGGSLRLSCAASGFTFSYYAMGWYRQAPGKERELVAAISGSGGSTYYADSVKGRFTISRDNAKNTVYLQMNSLKPEDTAVYYCNARWRTRGHPEMYHWGQGTQVTVSS” stands “high polyreactivity”.
Take “QVQLVESGGGLVQAGGSLRLSCAASGFTFSYYAMGWYRQAPGKERELVAAISSGGSTYYADSVKGRFTISRDNAKNTVYLQMHRLKPEDTAVYYCNVLNYSSRHYLFSYDYWGQGTQVTVSS”: the “polyreactivity (PSR sort gate)” value is reported as “high polyreactivity”.
Take “QVQLVESGGGLVQAGGSLRLSCAASGFTFSYYAMGWYRQAPGKERELVAAISWSGGSTYYADSVKGRFTISRDNAKNTVYLQMNSLKPEDTAVYYCARVLTRPGRLDYWGQGTQVTVSS”: the “polyreactivity (PSR sort gate)” value is recorded as “high polyreactivity”.
The value for “QVQLVESGGGLVQAGGSLRLSCAASGFTFSYYAMGWYRQAPGKERELVAAITSGGRTYYADSVKGRFTISRDNAKNTVYLQMNSLKPEDTAVYYCATSSQRWFYSGNYWGQGTQVTVSS” was “high polyreactivity”; that for “QVQLVESGGGLVQAGGSLRLSCAASGFTFSYYAMGWYRQAPGKERELVAAITSGGSTYYADYVKGRFTISRDNAKNTVYLQMNRLKPEDTAVYYCNADGWYYPTDDYWGQGTQVTVSS” was “low polyreactivity”; that for “QVQLVESGGGLVQAGGSLRLSCAASGFTFSYYAMGWYRQAPGKERELVATITSGGSTYYADSVKGRFTISRDNAKNTVYLQMNSLKPEDTAVYYCNADWYWRVYWGQGTQVTVSS” was “high polyreactivity”.
Under “QVQLVESGGGLVQAGGSLRLSCAASGFTFSYYVMGWYRPAPGKDRELVAAIDWSGDSTYYPDSVKGRFTISRDNAKNTVYLQMISLKPEDTAVYYCAADQHAYYPYYYWGQGTQVTVSS” stands “low polyreactivity”.
For “QVQLVESGGGLVQAGGSLRLSCAASGFTFTAYAMGWYRQAPGKERELVAAINWSGSRTYYADSVKGRFTISRDNAKNTVYLQMNSLKPEDTAVYYCNTATSKSSYRHYDYWGQGTQVTVSS”, the “polyreactivity (PSR sort gate)” value was “high polyreactivity”.
Under “QVQLVESGGGLVQAGGSLRLSCAASGFTFTDYAMGWYRQAPAKERELVAVITYDSTYYADSVKGRFTISRDNAKNTVYLQMNSLKPEDTAVYYCAADSYDWGDFDYWGQGTEVTVSS” stands “low polyreactivity”; under “QVQLVESGGGLVQAGGSLRLSCAASGFTFTDYTMGWYIQAPGTEREFVAAISYRGSNTYYADSVKGRFTISRDNAKNTVYLQMNSLKPLDTAVYYCAADSYRYKYNYWGQGTQVTVSS”, “high polyreactivity”; under “QVQLVESGGGLVQAGGSLRLSCAASGFTFTGNAMGWYRPAPGKERELVAAISRSGGSTFYADSVKGRFTISRDNAKNTVYLQMNSLKPEDTAVYYCAARRRTLNYLYDYWGQGTQVTVSS”, “high polyreactivity”.
Regarding “QVQLVESGGGLVQAGGSLRLSCAASGFTFTGYAMGWYRQAPGKERELVAAINRSGGTTYYADSVKGRFTISRDNAKNTVYLQMNSLKPEDTAVFYCAAFPSGRHRGDYWGQGTQVTVSS”, the “polyreactivity (PSR sort gate)” value was “high polyreactivity”.
Consider “QVQLVESGGGLVQAGGSLRLSCAASGFTFTGYAMGWYRQAPGKERELVAVISSRGGSTYYADSVKGRFTISRDNAKNTVYLQMNSLKPEDTAVYYCAARGSKGFSSPFGYWGQGTQVTVSS”, for which the “polyreactivity (PSR sort gate)” value is “high polyreactivity”.
For “QVQLVESGGGLVQAGGSLRLSCAASGFTFTHYAMGWYRQAPGKERELVAAITDTGGGTYYADSVKGRFTISRHNAKNTVYLQMNSLKPQDTAVYYCAKPTSYRGYYSWGQGTQVTVSS”, the “polyreactivity (PSR sort gate)” value is “high polyreactivity”.
With “QVQLVESGGGLVQAGGSLRLSCAASGFTFTIYAMGWYRQAPGKERELVATISGRAGRTYYADSVKGRFTISRDNAKNTVYLQMNSLKPEDTAVYYCNAGQWRYPGLYYYWGQGTQVTVSS”, the “polyreactivity (PSR sort gate)” value is listed as “high polyreactivity”.
As to “QVQLVESGGGLVQAGGSLRLSCAASGFTFTKNAMGWYRQAPGKERELVAAISRGGGRTYYADSVKGRFTISRDNAKNTVYLQMNSLKPEDTAVYYCNVDKVGPGYDYWGQGTQVTVSS”, the “polyreactivity (PSR sort gate)” value is reported as “high polyreactivity”.
With “QVQLVESGGGLVQAGGSLRLSCAASGFTFTKYAMGWYIQATGKERELVAAISRSGSSTYYADSVKGRFTISRDNAKNTVYLQMNSLKPEDTAVYYCAADNGYGDYYYWGQGTQVTVSS”, the “polyreactivity (PSR sort gate)” value is listed as “high polyreactivity”.
With “QVQLVESGGGLVQAGGSLRLSCAASGFTFTKYAMGWYRQAPGKERELVAAISGRGGSTYYADSVKGRFTISRDNAKNTVYLQMNSLKPEDTAVYYCAKYRYTVAGYNYWGQGTQVTVSS”, the “polyreactivity (PSR sort gate)” value is given as “high polyreactivity”.
Consider “QVQLVESGGGLVQAGGSLRLSCAASGFTFTNNAMGWYRQAPGKERELVAAIRRSGTNTYYADSVKGRFTISRDNAKNPVYLQMNSLKPEDTAVYYCATDGYEYTDYGSSGYDYWGQGTQVTVSS”, for which the “polyreactivity (PSR sort gate)” value is given as “low polyreactivity”.
With “QVQLVESGGGLVQAGGSLRLSCAASGFTFTQYVKGWYRQAPGKERELVAAITRGGGSTYYADSVKGRFTISRDNAKNTVYLQMNRLKPEDTAFYYCATRRVEYIRGWVEYDYWGQGTQVTVSS”, the “polyreactivity (PSR sort gate)” value is reported as “low polyreactivity”.
Consider “QVQLVESGGGLVQAGGSLRLSCAASGFTFTRNAMGRYRQAPGKERELVAAITSSGGRTYYADSVKGRFTISRDNAKNTVYLQMNSLKPVDTAVYYCAVYPRYSLPARDYDYWGQGTQVTVSS”, for which the “polyreactivity (PSR sort gate)” value is given as “high polyreactivity”.
As to “QVQLVESGGGLVQAGGSLRLSCAASGFTFTRNAMGWYRQAPGKERELVAAISKSGGRTYYADSVKGRFTISRDNAKNTVYLKMNSLKPEDSAVYYCAVVPRPFGLGSDYDYWGQGTQVTVSS”, the “polyreactivity (PSR sort gate)” value is “high polyreactivity”.
In the case of “QVQLVESGGGLVQAGGSLRLSCAASGFTFTRNAMGWYRQAPGKERELVAASTWSGGSTYYADSVKGRFTISRDNAKNTVYLQMNSLKPEDTAVYDCAALYRSRYYAGDYWGQGTQVTVSS”, the “polyreactivity (PSR sort gate)” value was “high polyreactivity”.
In the case of “QVQLVESGGGLVQAGGSLRLSCAASGFTFTRNAMGWYRQAPGKERFVAAITGSGASTYYADSVKGRFTISRDNAKNTVYLQMNSLKPEDTAVYYCNAEYYAGRYRYDYWGQGTQVTVSS”, the “polyreactivity (PSR sort gate)” value is on record as “high polyreactivity”.
In the case of “QVQLVESGGGLVQAGGSLRLSCAASGFTFTRYAMGWSRQAPGKETELVAAISSGSRTYYADSVKGRFTISRDNAKNTVYLQMNSLKPEDTAVYYCAAPVYTYYGHYDSWGQGTQVTVSS”, the “polyreactivity (PSR sort gate)” value is recorded as “high polyreactivity”.
The value for “QVQLVESGGGLVQAGGSLRLSCAASGFTFTRYGMGWYRQSPGKERELVAGISSGGSTNYADSVKGRFTISRDNSKNTVYLQMNSLKPEDTAVYYCAAGFYSHGIELGYWGQGTQVTVSS” was “high polyreactivity”.
On to “QVQLVESGGGLVQAGGSLRLSCAASGFTFTSYAMGWYRQAPGKERELVAAINRSGGSTTYADSVKGRFTISRDNAKNTVYLQMNSLNPEDTAVYYCAKAFRGHYWGQGTQVTVSS”, for which the “polyreactivity (PSR sort gate)” value is “high polyreactivity”.
Consider “QVQLVESGGGLVQAGGSLRLSCAASGFTFTTNAMGWYRQAPGKERELVAAISKRGTRTYYADSVKGRFTISRDNAKNTVYLQMNSLKPEDTAVYYCAAASVAGDKFDYWGQGTQVTVSS”, for which the “polyreactivity (PSR sort gate)” value is “high polyreactivity”.

These data come from the nanobody polyreactivity screen of Harvey et al. (2022).
